Data taken from patent US11760795B2, “Monoclonal antibodies to growth and differentiation factor 15 (GDF-15), and uses thereof for treating cancer cachexia and cancer” (JULIUS-MAXIMILIANS-UNIVERSITÄT WÜRZBURG, priority 2014, dated 2023).

Columns and labels:
[1] = molecular target: T1, recombinant mature human GDF-15 protein (Homo sapiens, UniProt Q99988); experiment: Surface plasmon resonance binding to immobilized recombinant mature human GDF-15 (insect cell derived); settings: GDF-15 derived from insect cell expression; 25° C.; 1:1 Langmuir-type interaction
T1 construct: made in house; host or cells: Baculovirus-transfected HighFive insect cells
T1 sequence (Q99988 with tags, fused parts or gaps): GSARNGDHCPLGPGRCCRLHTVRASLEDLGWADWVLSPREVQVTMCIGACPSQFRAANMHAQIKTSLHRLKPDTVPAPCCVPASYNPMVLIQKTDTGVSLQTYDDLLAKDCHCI
Procedure: Binding of monoclonal anti-human-GDF-15 antibodies according to the invention is generally assessed by employing surface plasmon resonance measurements using a Bio-Rad® ProteOn™ XPR36 system and Bio-Rad® GLC sensor chips as described for murine anti-human GDF-15 mAb-B1-23 in Example 1.
Binding of the monoclonal anti-human-GDF-15 antibody anti-human GDF-15 mAb-B1-23 was measured by employing surface plasmon resonance measurements using a Bio-Rad® ProteOn™ XPR36 system and Bio-Rad® GLC sensor chips:
For preparing the biosensors recombinant mature human GDF-15 protein was immobilized on flow cells 1 and 2. On one flow cell recombinant GDF-15 derived from Baculvirus-transfected insect cells (HighFive insect cells) and on the other recombinant protein derived from expression in E. coli was used. […] The resulting sensogram was analyzed using the software ProteOn Manager version 3.0. […] For the association rate constant a value of 5.4±0.06×10^5 M^−1s^−1 (kon) and for the dissociation rate constant a value of 4.3±0.03×10^−4 s^−1 (koff) could be determined (values are for the interaction of anti-human GDF-15 mAb-B1-23 with GDF-15 derived from insect cell expression).

[2] = Protein A elution at physiological pH and 10 fold concentration via spin columns, turbidity; format: physicochemical; settings: TRIS Buffer at physiological pH, from 0.5 mg/ml
Procedure: FIG. 7: Improved solubility of the chimeric and the humanized antibody at physiological pH.
5 mg of antibody (B1-23, chimeric B1-23=“ChimB1-23”, H1L5) were loaded on Proteus™ protein A columns, eluted and collected in a TRIS Buffer at physiological pH. After elution, the quality of the purified antibodies was assessed by Coomassie Brilliant Blue gel analysis. The concentration of the eluted antibodies was measured photometrically as well as in a Bradford assay (Roti-Quant, Carl Roth, Karlsruhe, Germany). […] The antibodies were then 10 fold concentrated via spin columns (Centricon, MWCO 30). […] All concentrated eluates were then centrifuged for 5 min at 13000 rpm in order to precipitate antibody aggregates. The remaining amount of soluble antibodies was finally determined via Bradford assay from the supernatant.

hrGDF-15 = molecular target: T2, hrGDF-15 (Homo sapiens, UniProt Q99988); experiment: Colorimetric ELISA binding to coated hrGDF-15; settings: serial 1:3 dilution from 333 ng/ml; in comparison to B12
T2 sequence (Q99988 with tags, fused parts or gaps limits assumed): T1 sequence (Q99988 with tags, fused parts or gaps)
Procedure: Additionally, by using a colorimetric assay, it was confirmed that all anti-GDF-15 antibodies used in the study bound to GDF-15 in a concentration-dependent manner. To determine the binding of B1-23 antibody variants to GDF-15, a […] ELISA experiment was performed. […] Therefore, Maxisorp 96 well plates (Nunc) were coated with hrGDF-15 (25 ng protein per well, 50 μl volume) over night at 4° C. The following day, plates were washed to remove unbound protein (3 times with 150 μl of PBS 0.05% Tween®) and non-specific binding sites were blocked with 150 μl of PBS 1% BSA for 2 hours at room temperature. Again, plates were washed and different variants of B1-23 test antibodies were applied (50 μl volume). To inquire specificity of the antibody binding, endpoint dilution was performed starting from 333 ng/ml and 1:3 serial dilution. As background control, PBS 1% BSA was applied. Following binding for 1 hour at room temperature, wells were washed as described above. As secondary antibody HRP conjugated Anti-human IgG (Life technologies, 1:5000) was applied for 1 hour at room temperature. Wells were washed as described above to remove unbound secondary antibody. […] For analysis, optical density at 450 nm was quantified using the ELISA reader (Tecan Sunrise) and the corresponding Magellan software.

[3] = system: GDF-15 mediated AKT-phosphorylation in ovarian cancer cell line SK-OV-3; experiment: Akt phosphorylation in SK-OV-3 cells (Western Blot); format: cell-based; settings: 2 μg antibody preincubated 5 minutes with 10 ng/ml GDF-15 at 37° C.
Procedure: FIG. 2: Akt Phosphorylation in the Ovarian Carcinoma Cell Line SK-OV-3. In order to quantify the Western Blot for the ovarian carcinoma cell line SK-OV-3, the ratio of phosphorylated Akt to the total amount of Akt was calculated and normalized to the untreated control.
b) The treatment of the ovarian cancer cell line SK-OV-3 with recombinant GDF-15 led to the phosphorylation of AKT. AKT is a molecule, which is part of the PI3K-pathway and contributes to the activation and proliferation of cells. In this experiment SK-OV-3 cells were treated with 10 ng/ml recombinant GDF-15 for 10 min at 37° C., 5% CO2. 5 minutes preincubation of 2 μg mAb-B1-23 with 10 ng/ml GDF-15 at 37° C. blocked the GDF-15 mediated AKT-phosphorylation (FIG. 2).

B1: mAb-B1-23: murine IgG2a (kappa) monoclonal anti-human GDF-15 antibody produced by hybridoma cell line B1-23, DSM ACC3142 (antibody, V domains shown)
VH: QVKLQQSGPGILQSSQTLSLTCSFSGFSLSTSGMGVSWIRQPSGKGLEWLAHIYWDDDKRYNPTLKSRLTISKDPSRNQVFLKITSVDTADTATYYCARSSYGAMDYWGQGTSVTVSS
VL: DIVLTQSPKFMSTSVGDRVSVTCKASQNVGTNVAWFLQKPGQSPKALIYSASYRYSGVPDRFTGSGSGTDFTLTISNVQSEDLAEYFCQQYNNFPYTFGGGTKLEIKRTVA
[1]
  association rate constant (kon): 5.4±0.06×10^5 M^−1s^−1
  dissociation rate constant (koff): 4.3±0.03×10^−4 s^−1
[2]
  aggregation after 10 fold concentration: presence of precipitates
hrGDF-15
  binding to GDF-15 in ELISA: clearly concentration-dependent binding
[3]
  GDF-15 mediated AKT-phosphorylation: blocked
